The record followed here is US20080050380A1.

In test [1] the target is soluble human GPVI-Fc (the extracellular domain of GPVI fused to Fc) (human) (UniProt Q9HCN6). Briefly: 125I-convulxin binding to GPVI-Fc captured on mAb 1P10.2, 10 µg/ml antibody; convulxin is the blocked partner.
Test [2] has the same target. Briefly: ELISA, 5 nM GPVI-Fc with 10 µg/ml antibody on collagen-coated wells; collagen is the blocked partner. (An ELISA detects its analyte on a solid surface through an enzyme-linked reagent.)
Test [3] has the same target. Briefly: SPR (BIAcore), GPVI-Fc coupled to the chip, bivalent model. For orientation: Surface plasmon resonance follows binding to a sensor surface in real time, without labels.
The target of test [4] is human TANGO 268 (glycoprotein VI, GPVI), full length (human) (UniProt Q9HCN6). The experiment in a line: flow cytometry on washed human platelets. On the technique in general: A flow cytometer gives signals particle by particle.
For test [5], the target named is baboon GPVI on baboon platelets (baboon). Briefly: flow cytometry on washed baboon platelets.
The target in the next test is collagen type I. Briefly: cell-based or functional assay.

soluble human GPVI-Fc (the extracellular domain of GPVI fused to Fc) (human), sequence (Q9HCN6 other isoform, or with tags, fused parts or gaps): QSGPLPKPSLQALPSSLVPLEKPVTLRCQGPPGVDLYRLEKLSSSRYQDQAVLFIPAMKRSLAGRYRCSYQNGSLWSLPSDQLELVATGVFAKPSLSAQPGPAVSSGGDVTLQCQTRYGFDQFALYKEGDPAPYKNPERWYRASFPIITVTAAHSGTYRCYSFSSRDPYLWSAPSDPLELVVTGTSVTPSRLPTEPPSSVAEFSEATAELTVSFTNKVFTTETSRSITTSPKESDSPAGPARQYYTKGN
human TANGO 268 (glycoprotein VI, GPVI), full length (human), sequence (Q9HCN6 other isoform, or with tags, fused parts or gaps): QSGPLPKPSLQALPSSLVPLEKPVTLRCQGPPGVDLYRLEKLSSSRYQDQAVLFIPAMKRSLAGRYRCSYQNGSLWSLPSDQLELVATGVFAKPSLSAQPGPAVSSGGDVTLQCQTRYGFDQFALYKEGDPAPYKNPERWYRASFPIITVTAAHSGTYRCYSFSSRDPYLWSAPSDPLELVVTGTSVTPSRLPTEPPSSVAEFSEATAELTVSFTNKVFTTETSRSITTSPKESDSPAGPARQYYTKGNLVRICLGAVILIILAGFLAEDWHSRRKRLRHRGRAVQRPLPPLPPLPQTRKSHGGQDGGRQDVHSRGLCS

“mouse monoclonal antibody produced by hybridoma cell line 9012.2” yielded a % of Inhibition of convulxin binding of hrGPVI in test [1] of 75%. The substance also registered a % of Inhibition of collagen binding of hrGPVI in test [2] of 58%. The substance further returned a Kd in test [3] of 18 nM. In test [4], this substance displayed a Human fluorescence intensity of 14 and a Human platelets % positive of 21%. Moreover, in test [5], the Baboon fluorescence intensity came out at 18 and the Baboon platelets % positive came to 33.8%.

As to “recombinant human soluble GPVI:Fc fusion protein (rhusGPVI:Fc) (from UniProt Q9HCN6 21-269)”, the concentration of rhusGPVI:Fc needed to inhibit collagen-induced activation, against that needed for Cvx with collagen type I turned out to be 10 fold.
